Assay results published in publication PMC9770967, “Native holdup (nHU) to measure binding affinities from cell extracts” (Science Advances, 2022).
Each block holds one molecule with its values, some of them ahead of it.

How the values were obtained:
[1] = test system: full-length SNX27; experiment: nHU-WB titration, full-length SNX27 bait, total Jurkat extracts; type: binding; settings: partial activity model (Eq. 4)
Method: The empty His6-AviTag-MBP-TEV vector was used to produce biotinylated MBP for control experiments. Proteins were coexpressed with BirA biotin ligase (PET21a-BirA, Addgene, no. 20857) in Escherichia coli BL21(DE3) cells. At isopropyl-β-D-thiogalactopyranoside (IPTG) induction (1 mM IPTG at 18°C overnight), 50 μM biotin was added to the media. […] Lysates were frozen at -20°C before further purification steps. Lysates were sonicated and centrifuged for clarification. Expressed proteins were captured on in-house prepacked Ni-IDA (Protino Ni-IDA Resin, Macherey-Nagel, Duren, Germany) columns and were washed with at least 10 column volumes of cold wash buffer [50 mM tris (pH 7.5), 150 mM NaCl, and 2 mM β-mercaptoethanol] before elution with 250 mM imidazole. The Ni elution was collected directly on a preequilibrated amylose column (amylose high flow resin, New England Biolabs, Ipswich, MA). […] The concentration of proteins was determined by their ultraviolet absorption at 280 nm before aliquots were snap-frozen in liquid nitrogen and stored at -80°C. […] To saturate streptavidin resin with biotinylated proteins, 50 μl of streptavidin resin (Streptavidin Sepharose High Performance, Cytiva) was mixed with biotinylated MBP or MBP-PDZ at 40 to 50 μM concentration in 20× resin volume for 60 min. […] Last, resins were washed two times (10 resin volume, holdup buffer). […]

[2] = test system: SNX27_PDZ; experiment: AP-MS control pull-down on leftover resin, SNX27_PDZ bait, total SH-SY5Y extracts; type: binding, human; settings: n = 6
Method: Leftover beads from nHU-MS experiments were washed three times immediately after the separation of the supernatant [10 resin volume in buffer containing 50 mM tris (pH 8.5), 150 mM NaCl, 1% Triton X-100, 10× cOmplete EDTA-free protease inhibitor cocktail, 2 mM EDTA, and 1 mM TCEP]. Then, the beads were washed two times [10 resin volume buffer containing 50 mM tris (pH 8.5), 150 mM NaCl, and 1 mM TCEP]. Last, captured protein was eluted from the resin in two steps, and the eluted fractions were pooled. For each elution, the beads were incubated for 30 min with three resin volume buffer containing 20 mM tris (pH 8.5), 100 mM NaCl, 500 μM TCEP, and 8 M urea. Between each step, the beads were separated by mild centrifugation, and the supernatant was removed by gentle pipetting.
The nHU samples were precipitated with trichloroacetic acid (TCA) 20% overnight at 4°C and centrifuged at 14,000 rpm for 10 min at 4°C. The protein pellets were washed twice with 1 ml of cold acetone and air-dried. […]
Samples were analyzed using an Ultimate 3000 nano-RSLC coupled in line via a nano-electrospray ionization source, with an LTQ-Orbitrap ELITE mass spectrometer (Thermo Fisher Scientific, San Jose, CA) or with the Orbitrap Exploris 480 mass spectrometer (Thermo Fisher Scientific, Bremen, Germany) equipped with a high field asymmetric ion mobility spectrometry (FAIMS) module. […]

[3] = target: SNX27_PDZ; experiment: nHU-MS, SNX27_PDZ bait, total SH-SY5Y extracts; type: binding, human
Method: The empty His6-AviTag-MBP-TEV vector was used to produce biotinylated MBP for control experiments. Proteins were coexpressed with BirA biotin ligase (PET21a-BirA, Addgene, no. 20857) in Escherichia coli BL21(DE3) cells. At isopropyl-β-D-thiogalactopyranoside (IPTG) induction (1 mM IPTG at 18°C overnight), 50 μM biotin was added to the media. Harvested cells were lysed in a buffer containing 50 mM tris (pH 7.5), 150 to 300 mM NaCl, 50 μM biotin, 2 mM β-mercaptoethanol, cOmplete EDTA-free protease inhibitor cocktail (Roche, Basel, Switzerland), 1% Triton X-100, and trace amount of deoxyribonuclease, ribonuclease, and lysozyme. Lysates were frozen at −20°C before further purification steps. Lysates were sonicated and centrifuged for clarification. Expressed proteins were captured on in-house prepacked Ni-IDA (Protino Ni-IDA Resin, Macherey-Nagel, Duren, Germany) columns and were washed with at least 10 column volumes of cold wash buffer [50 mM tris (pH 7.5), 150 mM NaCl, and 2 mM β-mercaptoethanol] before elution with 250 mM imidazole. The Ni elution was collected directly on a preequilibrated amylose column (amylose high flow resin, New England Biolabs, Ipswich, MA). Amylose column was washed with 5 column volumes of cold wash buffer before fractionated elution in a buffer containing 25 mM Hepes (pH 7.5), 150 mM NaCl, 1 mM TCEP, 10% glycerol, 5 mM maltose, and cOmplete EDTA-free protease inhibitor cocktail. The concentration of proteins was determined by their ultraviolet absorption at 280 nm before aliquots were snap-frozen in liquid nitrogen and stored at −80°C.
For saturating streptavidin resin with biotinylated peptides or biotin, 50 μl of streptavidin resin was mixed with biotin or peptide at 40 to 60 μM concentration in 6 to 6.5 resin volume for 60 min. To saturate streptavidin resin with biotinylated proteins, 50 μl of streptavidin resin (Streptavidin Sepharose High Performance, Cytiva) was mixed with biotinylated MBP or MBP-PDZ at 40 to 50 μM concentration in 20× resin volume for 60 min. After saturation, resins were washed a single time [10 resin volume, holdup buffer: 50 mM tris (pH 7.5), 300 mM NaCl, and 1 mM TCEP, 0.22-μm filtered] and were depleted with biotin (10 resin volume, 10 min, holdup buffer supplemented with 100 μM biotin). Last, resins were washed two times (10 resin volume, holdup buffer).
For single-point nHU experiments carried out at ~10 μM bait concentration, 50 μl of saturated streptavidin resin was mixed with 200 μl of cell lysate (2 mg/ml). Titration experiments were carried out by mixing control and bait-saturated resin and keeping the total resin volume constant; e.g., ~5 μM bait concentration can be achieved by mixing 25 μl of bait-saturated streptavidin resin with 25 μl of control resin and 200 μl of cell lysate (2 mg/ml). Control and bait-saturated resins were prepared in larger amounts, and a serial dilution was prepared with these presaturated resins to achieve different resin ratios.
Unless specified elswhere, the nHU mixture was incubated at 4°C for 2 hours. After the incubation ended, the resin was separated from the supernatant by a brief centrifugation (15 s, 2000 g). Then, half of the supernatant was removed by pipetting without any delay to avoid any resin contamination; e.g., 100 μl of supernatant is collected if 200 μl of cell lysate was used as analyte. Alternatively, the supernatant can be centrifuged an additional time to clarify it further, removing any possible resin contamination. […]

B1: full-length SLC16A1: monocarboxylate transporter 1, endogenous full-length prey (protein, UniProt P53985 1-500, looked up)
chain: MPPAVGGPVGYTPPDGGWGWAVVIGAFISIGFSYAFPKSITVFFKEIEGIFHATTSEVSWISSIMLAVMYGGGPISSILVNKYGSRIVMIVGGCLSGCGLIAASFCNTVQQLYVCIGVIGGLGLAFNLNPALTMIGKYFYKRRPLANGLAMAGSPVFLCTLAPLNQVFFGIFGWRGSFLILGGLLLNCCVAGALMRPIGPKPTKAGKDKSKASLEKAGKSGVKKDLHDANTDLIGRHPKQEKRSVFQTINQFLDLTLFTHRGFLLYLSGNVIMFFGLFAPLVFLSSYGKSQHYSSEKSAFLLSILAFVDMVARPSMGLVANTKPIRPRIQYFFAASVVANGVCHMLAPLSTTYVGFCVYAGFFGFAFGWLSSVLFETLMDLVGPQRFSSAVGLVTIVECCPVLLGPPLLGRLNDMYGDYKYTYWACGVVLIISGIYLFIGMGINYRLLAKEQKANEQKKESKEEETSIDVAGKPNEVTKAAESPDQKDTDGGPKEEESPV
modifications: full-length
notes: monocarboxylate transporter 1, endogenous full-length prey
f (active fraction) [1]: 0.9

pKapp_HU_not_filtered ([3]; apparent, Eq. 2, not filtered for significance): 4.74
pKapp_significant_binders_HU ([3]; apparent, Eq. 2, significant binders (1 σ, P < 0.05)): 4.74
B2: CNBP: Cellular nucleic acid-binding protein (protein, UniProt P62633 2-177, looked up)
CCHC-type zinc finger nucleic …: SSNECFKCGRSGHWARECPTGGGRGRGMRSRGRGGFTSDRGFQFVSSSLPDICYRCGESGHLAKDCDLQEDACYNCGRGGHIAKDCKEPKREREQCCYNCGKPGHLARDCDHADEQKCYSCGEFGHIQKDCTKVKCYRCGETGHVAINCSKTSEVNCYRCGESGHLARECTIEATA
FC_AP (log2 fold change) [2]: -0.3792
Ratio_AP [2]: 0.7689
BI_HU ([3]; n = 6): 0.3538
FC_HU (log2 fold change) ([3]; n = 6): -0.63
Ratio_HU ([3]; n = 6): 0.6462
